Measurements from article PMC9430930.

System: NupR (NagR2) (Bacillus thuringiensis BMB171), ORF:032de0b7
Assay: EMSA
Settings: NupR: 10 mM Tris-HCl pH 7.5, 50 mM NaCl, 0.5 mM DTT, 4% glycerol, 200 ng poly(dI-dC), 25 C 30 min, ComK/CcpA/PurR: 10 mM Tris-HCl pH 8.0, 50 mM KCl

Row | Sequence | binding
1 | CGCATTTCAATTATTCGACCTCTGATGTAAGACTTCTTTTCTCTTTTTTCAACTTACAACATAGTACAAATGACTAAACACCAAAATAAGTGTAATTGTCGAATAAATAATAATAATTTTTTAAAATAAAATTTTCACTCTTTATTGCATAAAAAAAACTTTGCACCATAAACATTCCTCATTTCGAGAAAAAGTTCGGCACAAAGATCCTTTACATCCTTTGTTACACACTTTTCCCCTCATAGTCTAGCAATTCATGGTTGCC (double strand) [nagR2 (nupR) promoter] | binds
2 | CTAATACAACACGGTTAATACCTTTTTTCATTTCAAAATTCCTCGCAATTTCATTGATTTTATTATGTAAGATAATACGTCTTACTTCTATAGAGTCATATCTAGTTTATTACATTTTATAAAAGATATTCAAGTATTTGAAAATGTATCCGTGCAAATCCGCGAACAAAACATAGGAATTCAGTGAACCGAATATAATTCAGTAAAATCCTTTGTAAAAGGGGAAATGGCATGG (double strand) [ldh promoter] | binds
3 | TGCATACTTACTCACCATCCCATTAGAACAATCTAATTTTTTGAGTTGTCATACCACTACAATAATGTGAATTCGACAATTTTTGATATGAAATAATGCATAATATATATAAAATTCGGCAAATTTTTCATACAATTCATCTCACATACAATAATAGATTAGGAGTGTTATAGATGAATTATAG (double strand) [baci promoter] | binds
4 | GGTGAAATAGTATGGTCATCACGTAATAAAGTATCATCTAAATCTAAAACAATCATTTTATAAGTCATATAGAAAATTCCTTTCTTTAATTGAAATCAAAATACATGTTCATGAAGATGTTGAGGAATAATAGTAAGACATCAAACCTCTTTGAAAAGAAGTAGATAAATTATTATGAGTTGTTGCTCATAATATTGGTTAATAATCATTGGGGAAGAATAAAACCCCAATGATTAAAGTTTGATTTTATCGTAACAACTCTAAAGGTAGAGTGCAATAATGGAAGTT (double strand) [had promoter] | binds
